The text below walks through data of patent WO2016071355A1 (dated 2016).

Experiment [1] deals with T1, soluble extracellular region of cynomolgus monkey CD38 antigen fused to a 6-His-tag (cynomolgus monkey, UniProt Q5VAN0 45-301).
T1 construct: also called cynomolgus CD38
Kind of experiment: SPR.

Experiment [2] has as its target T2, human CD38 peptide-Fc fusion F13 (human, UniProt P0DOX5 223-449 = IgG part). The experiment in a line: SPR, antibody immobilized, peptide-Fc injected at 1000 nM.
For experiment [3], the target named is T3, human CD38 peptide-Fc fusion F16 (human, UniProt P0DOX5 223-449 = IgG part). The experiment is described as above.
Experiment [4] has as its target T4, human CD38 peptide-Fc fusion F20 (human, UniProt P0DOX5 223-449 = IgG part). The description is as above.
The target of experiment [5] is T5, human CD38 peptide-Fc fusion F11 (human, UniProt P0DOX5 223-449 = IgG part). The description is as above.
Experiment [6] addresses T6, human CD38 peptide-Fc fusion F5 (human, UniProt P0DOX5 223-449 = IgG part). The description is as above.
The target in experiment [7] is T7, human CD38 peptide-Fc fusion F1 (human, UniProt P0DOX5 223-449 = IgG part). The experiment is described as above.
For experiment [8], the target named is T8, human CD38 peptide-Fc fusion F12 (human, UniProt P0DOX5 223-449 = IgG part). Described as above.
Experiment [9] has as its target T9, human CD38 peptide-Fc fusion F4 (human, UniProt P0DOX5 223-449 = IgG part).
T9 construct: doubtful
The experiment is described as above.

The target of experiment [10] is T10, human CD38 peptide-Fc fusion F15 (human, UniProt P0DOX5 223-449 = IgG part). The experiment is described as above.
For experiment [11], the target named is T11, human CD38 peptide-Fc fusion F8 (human, UniProt P0DOX5 223-449 = IgG part). Described as above.
For experiment [12], the target named is T12, human CD38 peptide-Fc fusion F17 (human, UniProt P0DOX5 223-449 = IgG part). The experiment is described as above.
Experiment [13] addresses T13, human CD38 peptide-Fc fusion F19 (human, UniProt P0DOX5 223-449 = IgG part). The description is as above.
The target of experiment [14] is T14, human CD38 peptide-Fc fusion F2 (human, UniProt P0DOX5 223-449 = IgG part). Described as above.
Experiment [15] has as its target T15, human CD38 peptide-Fc fusion F7 (human, UniProt P0DOX5 223-449 = IgG part). The experiment is described as above.
The target of experiment [16] is T16, human CD38 peptide-Fc fusion F3 (human, UniProt P0DOX5 223-449 = IgG part).
T16 construct: doubtful; also called F3 construct
The description is as above.

The target of experiment [17] is T17, human CD38 peptide-Fc fusion F18 (human, UniProt P0DOX5 223-449 = IgG part). Described as above.
Experiment [18] has as its target T18, human CD38 peptide-Fc fusion F9 (human, UniProt P0DOX5 223-449 = IgG part). The description is as above.
For experiment [19], the target named is T19, human CD38 peptide-Fc fusion F10 (human, UniProt P0DOX5 223-449 = IgG part). Described as above.
Experiment [20] has as its target T20, human CD38 peptide-Fc fusion F14 (human, UniProt P0DOX5 223-449 = IgG part). The description is as above.
In experiment [21] the target is T21, human CD38 peptide-Fc fusion F6 (human, UniProt P0DOX5 195-449 = IgG part). Described as above.
In experiment [22] the target is T22, soluble extracellular region of human CD38 fused to a 6-His-tag (human, UniProt P28907 43-300).
T22 construct: also called human CD38 extracellular domain with a poly-histidine tag; human CD38 antigen
The experiment in a line: SPR, equilibrium response, antibody captured on protein G. For orientation: In SPR one partner is held on a chip, and binding of the other changes the refractive index at the surface.

In experiment [23] the target is T16, human CD38 peptide-Fc fusion F3. Kind of experiment: SPR.
In experiment [24] the target is T21, human CD38 peptide-Fc fusion F6. Kind of experiment: SPR.
Experiment [25] has as its target T2, human CD38 peptide-Fc fusion F13. Kind of experiment: SPR, antibody immobilized, peptide-Fc injected at 15 nM and 200 nM.
Experiment [26] has as its target T3, human CD38 peptide-Fc fusion F16. Described as above.
Experiment [27] concerns the target T4, human CD38 peptide-Fc fusion F20. The description is as above.
Experiment [28] concerns the target T5, human CD38 peptide-Fc fusion F11. The experiment is described as above.
The target of experiment [29] is T6, human CD38 peptide-Fc fusion F5. Described as above.
Experiment [30] concerns the target T7, human CD38 peptide-Fc fusion F1. Described as above.
Experiment [31] addresses T8, human CD38 peptide-Fc fusion F12. The description is as above.
The target in experiment [32] is T9, human CD38 peptide-Fc fusion F4. The experiment is described as above.
The target in experiment [33] is T10, human CD38 peptide-Fc fusion F15. The description is as above.
The target of experiment [34] is T11, human CD38 peptide-Fc fusion F8. Described as above.
The target in experiment [35] is T12, human CD38 peptide-Fc fusion F17. Described as above.
Experiment [36] concerns the target T13, human CD38 peptide-Fc fusion F19. The experiment is described as above.
Experiment [37] addresses T14, human CD38 peptide-Fc fusion F2. Described as above.
Experiment [38] deals with T15, human CD38 peptide-Fc fusion F7. The description is as above.
The target in experiment [39] is T16, human CD38 peptide-Fc fusion F3. The experiment is described as above.
In experiment [40] the target is T17, human CD38 peptide-Fc fusion F18. Described as above.
Experiment [41] has as its target T18, human CD38 peptide-Fc fusion F9. The description is as above.
Experiment [42] deals with T19, human CD38 peptide-Fc fusion F10. The experiment is described as above.
The target of experiment [43] is T20, human CD38 peptide-Fc fusion F14. The experiment is described as above.

B1: human 767 antibody (antibody, V domains shown)
VH: QVQLVESGGGLVQPGGSLRLSCAASGFTFSSYWMSWVRQAPGKGLEWVANIKQDGSEKYYVDSVKGRFTISRDNAKNSLYLQMNSLRAEDTAVYYCAREGRTGYFDYWGQGTLVTVSS
VL: QSVLTQPPSASGTPGQRVTISCSGSTSNIGTNYVYWYQQLPGTAPKLLIYRNDQRPSGVPDRFSGSKSGTSASLAISGLRSEDEADYYCAAWDDSRSGVYAFGTGTKVTVLR
notes: Human IgG1
Usually Kd stands for a measure of binding affinity in units of concentration. With B1, the Kd in experiment [1] was approximately 1200 nM; in experiment [22], approximately 300 nM. In addition, the binding result in experiment [2], in experiment [3], in [4], in experiment [5], in experiment [6] and in experiment [7] was “no binding (tested: 1000 nM)” each time. The binding result in experiment [8], in experiment [9], in experiment [10], in experiment [11], in experiment [12] and in experiment [13] was “no binding (tested: 1000 nM)” each time. In addition, the binding result in experiment [14] is “no binding (tested: 1000 nM)”; in [15], “no binding (tested: 1000 nM)”; in [16], “binds”; in experiment [17], “no binding (tested: 1000 nM)”; in [18], “no binding (tested: 1000 nM)”; in experiment [19], “no binding (tested: 1000 nM)”. The binding result in [20] and in [21] was “no binding (tested: 1000 nM)” in each case.

B2: SAR650984 antibody (antibody, human IgG1, kappa, V domains shown)
VH: QVQLVQSGAEVAKPGTSVKLSCKASGYTFTDYWMQWVKQRPGQGLEWIGTIYPGDGDTGYAQKFQGKATLTADKSSKTVYMHLSSLASEDSAVYYCARGDYYGSNSLDYWGQGTSVTVSS
VL: DIVMTQSHLSMSTSLGDPVSITCKASQDVSTVVAWYQQKPGQSPRRLIYSASYRYIGVPDRFTGSGAGTDFTFTISSVQAEDLAVYYCQQHYSPPYTFGGGTKLEIKR
notes: also called humanized SAR650984 antibody
As to B2, the binding result in experiment [23] is “no binding”; in experiment [24] it was “binds”.

B3: humanized 9G7 antibody (best-fit version) of Example 10 (antibody, human IgG1, kappa, V domains shown)
VH: QVTLKESGPTLVKPTQTLTLTCTFSGLSLSTSGKGVGWIRQPPGKALEWLAHIWWDDDKRYNPALKSRLTITKDTSKNQVVLTMTNMDPVDTATYYCARIELGRSYVMDYWGQGTLVTVSS
VL: DIQMTQSPSSLSASVGDRVTITCQASQDVITSVAWFQQKPGKAPKLLIYSASYRYTGVPSRFSGSGSGTDFTFTISSLQPEDIATYYCQQHYTIPLTFGQGTKLEIKR
notes: also called h9G7
On to B3, for which the binding result in experiment [25], in experiment [26], in experiment [27], in experiment [28], in [29] and in experiment [30] was “no binding (tested: 200 nM)” each time. Also, the binding result in [31], in [32], in experiment [33], in experiment [34], in experiment [35] and in experiment [36] was “no binding (tested: 200 nM)” each time. In addition, the binding result in [37], in experiment [38], in experiment [39], in experiment [40], in experiment [41] and in experiment [42] was “no binding (tested: 200 nM)” each time. Moreover, the binding result in experiment [43] is “no binding (tested: 200 nM)”.
